In paper PMC7748003 (Plant Communications, 2019):

B1: BRC1 promoter probe a (fragment F2) (dsDNA)
DNA 1: GAACAAATGCAATATATCAATAGTTAGTGTACATATGAAG
DNA 2: CTTCATATGTACACTAACTATTGATATATTGCATTTGTTC
B2: MBP-BES1 (natural protein, Arabidopsis, UniProt Q9LN63 1-335, looked up)
chain: MTSDGATSTSAAAAAAAMATRRKPSWRERENNRRRERRRRAVAAKIYTGLRAQGNYNLPKHCDNNEVLKALCSEAGWVVEEDGTTYRKGHKPLPGDMAGSSSRATPYSSHNQSPLSSTFDSPILSYQVSPSSSSFPSPSRVGDPHNISTIFPFLRNGGIPSSLPPLRISNSAPVTPPVSSPTSRNPKPLPTWESFTKQSMSMAAKQSMTSLNYPFYAVSAPASPTHHRQFHAPATIPECDESDSSTVDSGHWISFQKFAQQQPFSASMVPTSPTFNLVKPAPQQLSPNTAAIQEIGQSSEFKFENSQVKPWEGERIHDVAMEDLELTLGNGKAHS
B3: BRC1 promoter probe c (fragment F5) (dsDNA)
DNA 1: AAGAAGATTATAGTACAAGTGTCATTCTCAAAATTTTGTC
DNA 2: GACAAAATTTTGAGAATGACACTTGTACTATAATCTTCTT
B4: BRC1 promoter probe b (fragment F4) (dsDNA)
DNA 1: AACATAAACAAACACAAGGTCCTAATTATAGAAAAAAATC
DNA 2: GATTTTTTTCTATAATTAGGACCTTGTGTTTGTTTATGTT

How the values were obtained:
BES1-MBP = BES1-MBP (Arabidopsis thaliana, UniProt Q9LN63 1-335); assay: EMSA
GST-SMXL6 = target: T1, GST-SMXL6 (Arabidopsis, UniProt Q9LML2 1-979); assay: pull-down
T1 sequence (looked up): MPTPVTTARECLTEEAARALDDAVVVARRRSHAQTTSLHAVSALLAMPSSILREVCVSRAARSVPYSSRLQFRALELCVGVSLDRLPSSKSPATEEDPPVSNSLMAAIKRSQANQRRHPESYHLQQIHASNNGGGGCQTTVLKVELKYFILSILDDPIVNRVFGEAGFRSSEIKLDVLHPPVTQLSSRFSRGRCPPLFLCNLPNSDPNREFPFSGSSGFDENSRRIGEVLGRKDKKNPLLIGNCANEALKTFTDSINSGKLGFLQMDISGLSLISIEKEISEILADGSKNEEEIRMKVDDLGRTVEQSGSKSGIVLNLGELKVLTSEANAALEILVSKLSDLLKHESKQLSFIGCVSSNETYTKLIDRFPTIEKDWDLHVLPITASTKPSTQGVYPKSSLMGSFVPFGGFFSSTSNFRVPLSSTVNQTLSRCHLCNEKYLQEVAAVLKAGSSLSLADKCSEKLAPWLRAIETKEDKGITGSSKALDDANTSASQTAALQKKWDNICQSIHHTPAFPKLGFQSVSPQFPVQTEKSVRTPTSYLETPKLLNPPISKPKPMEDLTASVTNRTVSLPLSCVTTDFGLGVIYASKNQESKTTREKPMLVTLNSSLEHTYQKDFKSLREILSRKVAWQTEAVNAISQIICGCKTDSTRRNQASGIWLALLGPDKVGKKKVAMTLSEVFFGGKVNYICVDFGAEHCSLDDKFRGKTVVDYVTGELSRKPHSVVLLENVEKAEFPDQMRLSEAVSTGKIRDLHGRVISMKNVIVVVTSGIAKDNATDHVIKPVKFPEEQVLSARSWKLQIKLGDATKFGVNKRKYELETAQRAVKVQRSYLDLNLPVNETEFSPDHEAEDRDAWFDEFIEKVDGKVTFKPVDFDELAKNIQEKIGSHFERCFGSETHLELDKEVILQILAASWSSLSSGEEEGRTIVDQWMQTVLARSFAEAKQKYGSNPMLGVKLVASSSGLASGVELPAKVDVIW

GST-SMXL7 = target: T2, GST-SMXL7 (Arabidopsis, UniProt O80875 1-1002); assay: pull-down
T2 sequence (looked up): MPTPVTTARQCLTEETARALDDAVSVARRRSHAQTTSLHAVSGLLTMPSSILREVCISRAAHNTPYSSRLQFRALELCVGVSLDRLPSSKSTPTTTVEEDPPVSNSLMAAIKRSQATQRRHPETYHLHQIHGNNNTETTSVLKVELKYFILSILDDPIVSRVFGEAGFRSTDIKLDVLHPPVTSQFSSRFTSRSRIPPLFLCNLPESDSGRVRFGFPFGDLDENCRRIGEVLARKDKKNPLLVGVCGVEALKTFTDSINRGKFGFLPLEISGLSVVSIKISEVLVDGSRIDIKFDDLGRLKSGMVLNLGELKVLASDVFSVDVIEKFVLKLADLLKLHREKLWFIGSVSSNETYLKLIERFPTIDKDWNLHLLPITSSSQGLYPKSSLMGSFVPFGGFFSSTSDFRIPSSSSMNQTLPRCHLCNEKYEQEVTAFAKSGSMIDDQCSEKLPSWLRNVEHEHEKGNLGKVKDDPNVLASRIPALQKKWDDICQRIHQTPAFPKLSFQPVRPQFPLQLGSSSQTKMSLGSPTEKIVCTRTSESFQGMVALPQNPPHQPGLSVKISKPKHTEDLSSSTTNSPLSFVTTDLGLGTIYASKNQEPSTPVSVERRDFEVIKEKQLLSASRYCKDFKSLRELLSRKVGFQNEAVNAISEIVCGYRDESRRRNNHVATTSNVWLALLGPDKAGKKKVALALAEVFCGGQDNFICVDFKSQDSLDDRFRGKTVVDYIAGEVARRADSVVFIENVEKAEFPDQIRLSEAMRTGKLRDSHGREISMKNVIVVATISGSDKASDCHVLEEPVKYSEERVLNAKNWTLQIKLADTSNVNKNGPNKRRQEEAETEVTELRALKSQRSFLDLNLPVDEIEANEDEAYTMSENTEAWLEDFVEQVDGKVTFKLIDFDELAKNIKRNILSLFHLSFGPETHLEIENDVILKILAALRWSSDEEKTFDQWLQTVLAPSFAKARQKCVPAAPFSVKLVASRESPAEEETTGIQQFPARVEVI

GST-SMXL8 = target: T3, GST-SMXL8 (Arabidopsis, UniProt F4IGZ2 1-910); assay: pull-down
T3 sequence (looked up): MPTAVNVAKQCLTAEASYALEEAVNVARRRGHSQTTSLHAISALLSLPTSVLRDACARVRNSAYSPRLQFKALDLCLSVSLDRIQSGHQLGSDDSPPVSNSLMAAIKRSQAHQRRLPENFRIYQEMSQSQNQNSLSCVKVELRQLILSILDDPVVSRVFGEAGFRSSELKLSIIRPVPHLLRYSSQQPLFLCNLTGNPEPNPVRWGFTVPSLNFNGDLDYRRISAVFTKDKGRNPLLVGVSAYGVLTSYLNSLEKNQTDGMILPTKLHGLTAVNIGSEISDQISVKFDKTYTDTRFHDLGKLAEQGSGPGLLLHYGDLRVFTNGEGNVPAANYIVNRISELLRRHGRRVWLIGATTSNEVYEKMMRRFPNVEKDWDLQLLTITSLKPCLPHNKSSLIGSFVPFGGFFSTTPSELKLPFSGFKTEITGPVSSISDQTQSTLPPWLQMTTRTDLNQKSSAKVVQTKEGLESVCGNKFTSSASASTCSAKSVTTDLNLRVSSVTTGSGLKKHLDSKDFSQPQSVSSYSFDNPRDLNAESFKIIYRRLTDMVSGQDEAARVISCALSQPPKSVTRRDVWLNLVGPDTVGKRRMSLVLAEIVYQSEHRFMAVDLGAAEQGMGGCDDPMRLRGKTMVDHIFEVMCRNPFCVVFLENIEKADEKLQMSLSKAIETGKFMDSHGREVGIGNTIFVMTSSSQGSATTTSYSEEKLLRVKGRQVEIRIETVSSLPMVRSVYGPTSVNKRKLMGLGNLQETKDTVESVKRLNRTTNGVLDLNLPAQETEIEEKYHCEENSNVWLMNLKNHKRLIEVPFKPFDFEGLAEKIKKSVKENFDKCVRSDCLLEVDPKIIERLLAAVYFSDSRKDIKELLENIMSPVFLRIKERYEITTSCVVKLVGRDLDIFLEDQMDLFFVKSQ

Row | Binder | binding result (BES1-MBP) | binding result (GST-SMXL6) | binding result (GST-SMXL7) | binding result (GST-SMXL8)
1 | B1 | binds |  |  | 
2 | B2 |  | binds | binds | binds
3 | B3 | binds |  |  | 
4 | B4 | binds |  |  | 
